Experimental findings from article PMC5861120, “Architecture of the Saccharomyces cerevisiae NuA4/TIP60 complex” (Nature Communications, 2018) are described below.

The target of experiment [1] is T1, Purified native TINTIN (Eaf5-Eaf7-Eaf3) (S. cerevisiae, UniProt P39995 1-279; P53911 1-425; Q12432 1-401).
T1 construct: Eaf5, S. cerevisiae; Eaf7, S. cerevisiae; Eaf3, S. cerevisiae; The pull-down blots used anti-TAP and anti-Eaf3, so one subunit probably carries a TAP tag or its remnant; also called TINTIN subcomplex; source: purified native TINTIN; copies: + +
T1 sequence (looked up) 1: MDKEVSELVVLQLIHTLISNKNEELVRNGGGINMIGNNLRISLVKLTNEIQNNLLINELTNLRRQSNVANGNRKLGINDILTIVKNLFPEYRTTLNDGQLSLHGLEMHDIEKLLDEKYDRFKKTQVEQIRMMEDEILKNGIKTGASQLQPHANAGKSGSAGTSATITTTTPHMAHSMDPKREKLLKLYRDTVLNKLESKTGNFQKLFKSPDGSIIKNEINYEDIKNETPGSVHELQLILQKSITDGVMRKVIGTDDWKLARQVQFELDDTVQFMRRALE
T1 sequence (looked up) 2: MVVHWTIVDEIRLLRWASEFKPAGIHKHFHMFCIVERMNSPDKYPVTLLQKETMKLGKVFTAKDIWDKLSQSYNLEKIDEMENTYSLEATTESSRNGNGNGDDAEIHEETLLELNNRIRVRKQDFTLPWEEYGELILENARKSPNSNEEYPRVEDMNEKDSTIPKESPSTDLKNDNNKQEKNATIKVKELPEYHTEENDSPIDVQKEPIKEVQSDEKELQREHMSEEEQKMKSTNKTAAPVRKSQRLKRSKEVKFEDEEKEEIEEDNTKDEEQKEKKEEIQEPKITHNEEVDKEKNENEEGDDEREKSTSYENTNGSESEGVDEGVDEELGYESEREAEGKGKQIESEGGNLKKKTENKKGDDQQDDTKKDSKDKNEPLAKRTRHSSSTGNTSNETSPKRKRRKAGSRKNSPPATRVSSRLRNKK
T1 sequence (looked up) 3: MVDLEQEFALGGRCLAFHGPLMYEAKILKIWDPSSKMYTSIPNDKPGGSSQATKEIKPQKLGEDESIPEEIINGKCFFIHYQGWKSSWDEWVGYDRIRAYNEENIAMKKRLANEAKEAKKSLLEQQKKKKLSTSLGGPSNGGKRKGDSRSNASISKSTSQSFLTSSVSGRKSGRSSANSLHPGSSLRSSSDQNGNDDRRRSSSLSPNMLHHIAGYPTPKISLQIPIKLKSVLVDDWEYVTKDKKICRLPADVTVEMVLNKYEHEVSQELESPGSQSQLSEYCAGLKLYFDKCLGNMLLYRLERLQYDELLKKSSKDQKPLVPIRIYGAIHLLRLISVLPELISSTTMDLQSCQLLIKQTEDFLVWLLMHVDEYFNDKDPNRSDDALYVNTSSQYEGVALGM
Briefly: pull-down; 300–600 ng GST-tagged Eaf1 fragments immobilised on glutathione sepharose, incubated with purified native TINTIN or His-tagged Tra1 (3200–3744) for 3–4 h at 4 °C; binding buffer 25 mM HEPES pH 7.5, 100 mM NaCl, 10% glycerol, 0.1% Tween-20; western blotting (anti-TAP, anti-Eaf3, anti-His). As to conditions: both partners purified. On the technique in general: Immunoblotting shows a protein as a band on a membrane.

Experiment [2] addresses T2, Recombinant His-tagged Tra1 (3200–3744) (S. cerevisiae, UniProt P38811 3200-3744).
T2 construct: Tra1, S. cerevisiae, residues 3200–3744 (FRB-PI3K-FATC); also called recombinant Tra1 C-terminus (FRB-PI3K-FATC); source: recombinant, bacterial culture, purified (Ni-NTA, eluted with imidazole)
T2 sequence (looked up): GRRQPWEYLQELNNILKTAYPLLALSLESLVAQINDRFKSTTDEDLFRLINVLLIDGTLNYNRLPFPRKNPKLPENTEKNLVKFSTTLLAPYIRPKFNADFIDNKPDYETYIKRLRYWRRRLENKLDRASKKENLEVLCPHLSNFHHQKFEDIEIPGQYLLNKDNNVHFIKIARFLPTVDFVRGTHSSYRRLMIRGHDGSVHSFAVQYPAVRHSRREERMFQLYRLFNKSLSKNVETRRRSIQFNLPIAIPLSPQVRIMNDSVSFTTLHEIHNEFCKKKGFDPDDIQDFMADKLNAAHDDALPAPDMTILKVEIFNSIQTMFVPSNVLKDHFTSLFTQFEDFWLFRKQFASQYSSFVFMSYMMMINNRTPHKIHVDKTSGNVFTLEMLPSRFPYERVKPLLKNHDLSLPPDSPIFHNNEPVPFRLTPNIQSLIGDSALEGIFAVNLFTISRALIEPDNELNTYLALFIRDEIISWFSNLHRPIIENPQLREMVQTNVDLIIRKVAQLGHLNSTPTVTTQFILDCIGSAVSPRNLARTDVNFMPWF
The description is as above. As to conditions: both partners purified.

B1: GST-tagged Eaf1 (1–530) (domain or fragment, S. cerevisiae, UniProt Q06337 1-530, looked up)
chain: MSSRPSSAVPNSASLSEDQSSDRSKFPKADDLIDERDRKLTELYCVSRLNQLLELTDENKLRKEIDAFLKKNDIRRGIRFDEASLPKLLHTAATPITKKKLKDVNLINVPNQRLSDSKMSRELPENSENVSVKSESHFVPSHDNSIRENMMDSLRPAEKTGGMWNKRPLESTMGGEEERHEKRQKMQSQSLESSNNSEMASLPISPRPPVPNALAHYTYYENIEYPPADPTEVQPAVKFKDPLIKNIMAKEIDTSDHYNENNVDALETVFLLMNDYIPSKIPQALPLAELKYMSQTLPLINLIPRAHKALTTNIINNALNEARITVVGSRIEELRRLGLWSLRQPKRFIDPWKQHNTHQNILLEEAKWMQADFKEGHKYKVAICTAMAQAIKDYWTYGEICCVKRKTLLPGKENKLSDDGRISEKSGRPSDTSRNDSDISIAGKDDIGIIANVDDITEKESAAANDNDENGKNEAGAKSDFDFADGLLSQEGAHDQIISSIDTKLLLKKPSSSSEVVLIQHEVAASSALI
notes: also called Eaf1 N-terminal half; N-terminal portion of Eaf1; source: recombinant, bacterial culture, held on glutathione sepharose beads
As to B1, the binding result in experiment [1] is “binds”.

B2: GST-tagged Eaf1 (536–982) (domain or fragment, S. cerevisiae, UniProt Q06337 536-982, looked up)
chain: KKELAPPFKLSIFVDELNTFEKTLIQDLPLYNGINEERPKKDDSLPFIPISKSVVSLDDNGFYKLLERQLIDEEPSISQLSKRRGMFYGNRRNHYLRPPAVPSLRYLQNRTPTIWLSEDDQELVKNINTYGYNWELISAHMTHRLTYSYLSNIERRTPWQCFERFVQLNERFNFSDLKGPRAHSAQQWLIEAHKFQQRQNRRISPLGVNTESIQRGHRRLRWASMFEAIRKCMKKRENTPRPNPTQPRKPLDCKNMKVPTPAEMSLLKAQRDEALRRDIQLRRTVKNRLQQRQQQSQQAHSSRAQSPIPSNGKSSSNLARNGQASAPRPNQKQYTEQDIIESYSRKLLEQKPDIGPEMALKAAKNYYRTLREQQQQLKQHQIQQQRQQLQEESSHVQQLQQLQPGSQAPPPKSSPSQSSLSNISNINSAPRIKSPTPQEILQRFQKQ
notes: also called Eaf1 C-terminal half; C-terminal region of Eaf1; source: recombinant, bacterial culture, held on glutathione sepharose beads
Take B2: the binding result in experiment [2] was “binds”.
